Results on 1 substance are retold here after paper PMC8002387.

In the assay the target is QtEnc^FLAG (encapsulin shell protein from Quasibacillus thermotolerans with a C-terminal FLAG tag) (Quasibacillus thermotolerans).

With “DD-mScarlet-I-QtSig (destabilized fluorescent cargo protein)”, the mScarlet-I fluorescence (RFP channel) of HepG2 cells coexpressing QtEnc^FLAG and the degron-tagged cargo; share of fluorescent cells; cells with the cargo alone gave a weak background signal was 20 % of cells.
